Test results published in publication PMC1906830, “In vivo optical imaging of integrin αV-β3 in mice using multivalent or monovalent cRGD targeting vectors” (Molecular Cancer, 2007).

Assays:
HEK293(β3) s.c. tumors [1] = assay: Whole body in vivo optical imaging (fluorescence reflectance) of tumor-bearing mice; design: species or system Swiss nude mice
HEK293(β3) s.c. tumors [2] = assay: Histological distribution of RGD-peptides in excised tumors (CLSM); format: in vivo, Swiss nude mice; conditions: HEK293(β3) s.c. tumor excised 3 hr after 10 nmol i.v., cryosections
Procedure: Sections of 20–30 μm thickness were fixed with 2% paraformaldehyde at room temperature for 10 min. The nuclei were stained with 5 μM Hoechst 33342, and the coverslips were mounted using Mowiol and kept at 4°C in the dark until observation using CLSM.

[3] = test system: HEK293(β3) cells (high levels of αVβ3); assay: In vitro binding of Cy5-labeled peptides, confocal laser scanning microscopy; format: cell-based, human; conditions: 0.1 μM Cy5-labeled peptide, 30 min, 37°C, result in words
Procedure: (§1) Cells were seeded on sterilized 18-mm-diameter glass coverslips in 12-well plates (3 × 10^5 cells per well), and incubated overnight at 37°C. […] They were then washed with PBS, fixed with 2% paraformaldehyde at room temperature for 10 min. The nuclei were stained with 5 μM Hoechst 33342, and the coverslips were inverted onto glass slides using Mowiol (Calbiochem, San Diego, CA) mounting medium.

[4] = test system: HEK293(β1) cells (αVβ3-negative); assay: as above; format: cell-based, human; conditions: 0.1 μM Cy5-labeled peptide, 30 min, 37°C, result in words
Procedure: as §1

Cy5-RAFT-c(-RGDfK-)4 (bicyclic or more) [Cy5-labeled tetramer: four c[-RGDfK-] grafted via oxime bond on RAFT cyclic decapeptide, Cy5 on the opposite side lysine]
tumor contrast (T/S ratio, tumor vs. skin) (HEK293(β3) s.c. tumors [1]; HEK293(β3) s.c. tumor, 10 nmol i.v., 4 hr p.i., mean ± SD, n = 3–4): 15.9 ± 3.6 | renal uptake (HEK293(β3) s.c. tumors [1]; i.v. injection, tumor-bearing or normal mice, not modified by excess of unlabeled tetramer or monomer): higher renal uptake than Cy5-cRGD | tumor/skin ratio (HEK293(β3) s.c. tumors [1]; intravenous injection, HEK293(β3) tumors, time not stated (abstract)): above 15 | distribution / internalization in tumor cells of excised tumors (CLSM, words) (HEK293(β3) s.c. tumors [2]): massively internalized by tumor cells | binding to HEK293(β3) cells (CLSM) [3]: very strongly | binding to HEK293(β1) cells (CLSM) [4]: none of these peptides bound
